B1: CEBPG (protein, UniProt P53567 1-150, looked up)
CCAAT/enhancer-binding …: MSKISQQNSTPGVNGISVIHTQAHASGLQQVPQLVPAGPGGGGKAVAPSKQSKKSSPMDRNSDEYRQRRERNNMAVKKSRLKSKQKAQDTLQRVNQLKEENERLEAKIKLLTKELSVLKDLFLEHAHNLADNVQSISTENTTADGDNAGQ
B2: CJUN (protein, UniProt P05412 1-331, looked up)
Transcription factor Jun: MTAKMETTFYDDALNASFLPSESGPYGYSNPKILKQSMTLNLADPVGSLKPHLRAKNSDLLTSPDVGLLKLASPELERLIIQSSNGHITTTPTPTQFLCPKNVTDEQEGFAEGFVRALAELHSQNTLPSVTSAAQPVNGAGMVAPAVASVAGGSGSGGFSASLHSEPPVYANLSNFNPGALSSGGGAPSYGAAGLAFPAQPQQQQQPPHHLPQQMPVQHPRLQALKEEPQTVPEMPGETPPLSPIDMESQERIKAERKRMRNRIAASKCRKRKLERIARLEEKVKTLKAQNSELASTANMLREQVAQLKQKVMNHVNSGCQLMLTQQLQTF
B3: AATF (protein, UniProt Q9JKX4 2-526, looked up)
Protein AATF: AAPQPLALQLEQLLNPRPREADPEADPEEATRARVIDRFDEGEEEKDDLAVSSIRKLAPVSLLDTDKRYSGKTTSRKAWKEDHWEQALPSSSDNEASDEGGSEDGDSEGLGLEEISEDVDEDLEDNKISDEGGSEDGDSEGLGLEEFSEDVEEDLEGEDEEDREEDRNSEDDGVVAAFSSVKVSEEVEKGRAVKNQIALWDQLLEGRIKLQKALLTTNQLPQPDVFPVFKDKGGPEFASALKNSHKALKALLRSLVDLQEELLFQYPDTRHIVNGAKPNTESEEISSEDDELVGEKKKQRKAPPKRKLEMEDYPSFMAKRFADFTIYRNHTLQKWHDKTKLASGKLGKGFGAFERSILTQIDHIMMDKERLLRRTQTKRSAYRVLGKPEPVPEPVAETLPGEPETLPQGPANAHLRDLDEEIFDDDDFYHQLLRELIERKTSSLDPNDQVAMGRQWLAIQKLRSKIRKKVDRKASKGRKLRFHVLSKLLSFMAPIDHTAMSDDARTELFRSLFGQLNPPDADRGK
B4: ZZZ3 (protein, UniProt Q8IYH5 1-903, looked up)
ZZ-type zinc …: MAASRSTRVTRSTVGLNGLDESFCGRTLRNRSIAHPEEISSNSQVRSRSPKKRPEPVPIQKGNNNGRTTDLKQQSTRESWVSPRKRGLSSSEKDNIERQAIENCERRQTEPVSPVLKRIKRCLRSEAPNSSEEDSPIKSDKESVEQRSTVVDNDADFQGTKRACRCLILDDCEKREIKKVNVSEEGPLNSAVVEEITGYLAVNGVDDSDSAVINCDDCQPDGNTKQNSIGSYVLQEKSVAENGDTDTQTSMFLDSRKEDSYIDHKVPCTDSQVQVKLEDHKIVTACLPVEHVNQLTTEPATGPFSETQSSLRDSEEEVDVVGDSSASKEQCKENTNNELDTSLESMPASGEPEPSPVLDCVSAQMMSLSEPQEHRYTLRTSPRRAAPTRGSPTKNSSPYRENGQFEENNLSPNETNATVSDNVSQSPTNPGEISQNEKGICCDSQNNGSEGVSKPPSEARLNIGHLPSAKESASQHITEEEDDDPDVYYFESDHVALKHNKDYQRLLQTIAVLEAQRSQAVQDLESLGRHQREALKNPIGFVEKLQKKADIGLPYPQRVVQLPEIVWDQYTHSLGNFEREFKNRKRHTRRVKLVFDKVGLPARPKSPLDPKKDGESLSYSMLPLSDGPEGSSSRPQMIRGRLCDDTKPETFNQLWTVEEQKKLEQLLIKYPPEEVESRRWQKIADELGNRTAKQVASRVQKYFIKLTKAGIPVPGRTPNLYIYSKKSSTSRRQHPLNKHLFKPSTFMTSHEPPVYMDEDDDRSCFHSHMNTAVEDASDDESIPIMYRNLPEYKELLQFKKLKKQKLQQMQAESGFVQHVGFKCDNCGIEPIQGVRWHCQDCPPEMSLDFCDSCSDCLHETDIHKEDHQLEPIYRSETFLDRDYCVSQGTSYNYLDPNYFPANR
B5: ZXDA (protein, UniProt P98168 1-799, looked up)
Zinc finger X-linked protein …: MEIPKLLPARGTLQGGGGGGIPAGGGRVHRGPDSPAGQVPTRRLLLPRGPQDGGPGRRREEASTASRGPGPSLFAPRPHQPSGGGDDFFLVLLDPVGGDVETAGSGQAAGPVLREEAKAGPGLQGDESGANPAGCSAQGPHCLSAVPTPAPISAPGPAAAFAGTVTIHNQDLLLRFENGVLTLATPPPHAWEPGAAPAQQPRCLIAPQAGFPQAAHPGDCPELRSDLLLAEPAEPAPAPAPQEEAEGLAAALGPRGLLGSGPGVVLYLCPEALCGQTFAKKHQLKMHLLTHSSSQGQRPFKCPLGGCGWTFTTSYKLKRHLQSHDKLRPFGCPAEGCGKSFTTVYNLKAHMKGHEQENSFKCEVCEESFPTQAKLGAHQRSHFEPERPYQCAFSGCKKTFITVSALFSHNRAHFREQELFSCSFPGCSKQYDKACRLKIHLRSHTGERPFLCDFDGCGWNFTSMSKLLRHKRKHDDDRRFMCPVEGCGKSFTRAEHLKGHSITHLGTKPFVCPVAGCCARFSARSSLYIHSKKHLQDVDTWKSRCPISSCNKLFTSKHSMKTHMVKRHKVGQDLLAQLEAANSLTPSSELTSQRQNDLSDAEIVSLFSDVPDSTSAALLDTALVNSGILTIDVASVSSTLAGHLPANNNNSVGQAVDPPSLMATSDPPQSLDTSLFFGTAATGFQQSSLNMDEVSSVSVGPLGSLDSLAMKNSSPEPQALTPSSKLTVDTDTLTPSSTLCENSVSELLTPAKAEWSVHPNSDFFGQEGETQFGFPNAAGNHGSQKERNLITVTGSSFLV
B6: CEBPE (protein, UniProt Q15744 1-281, looked up)
CCAAT/enhancer-binding …: MSHGTYYECEPRGGQQPLEFSGGRAGPGELGDMCEHEASIDLSAYIESGEEQLLSDLFAVKPAPEARGLKGPGTPAFPHYLPPDPRPFAYPPHTFGPDRKALGPGIYSSPGSYDPRAVAVKEEPRGPEGSRAASRGSYNPLQYQVAHCGQTAMHLPPTLAAPGQPLRVLKAPLATAAPPCSPLLKAPSPAGPLHKGKKAVNKDSLEYRLRRERNNIAVRKSRDKAKRRILETQQKVLEYMAENERLRSRVEQLTQELDTLRNLFRQIPEAANLIKGVGGCS
B7: CEBPD (protein, UniProt P49716 2-269, looked up)
CCAAT/enhancer-binding …: SAALFSLDGPARGAPWPAEPAPFYEPGRAGKPGRGAEPGALGEPGAAAPAMYDDESAIDFSAYIDSMAAVPTLELCHDELFADLFNSNHKAGGAGPLELLPGGPARPLGPGPAAPRLLKREPDWGDGDAPGSLLPAQVAACAQTVVSLAAAGQPTPPTSPEPPRSSPRQTPAPGPAREKSAGKRGPDRGSPEYRQRRERNNIAVRKSRDKAKRRNQEMQQKLVELSAENEKLHQRVEQLTRDLAGLRQFFKQLPSPPFLPAAGTADCR
B8: ZSCAN10 (protein, UniProt Q96SZ4 1-780, looked up)
Zinc finger and SCAN …: MLGESVPAAVEQEQLGEVKLEEEEAVSPEDPRRPESRLRPEVAHQLFRCFQYQEDMGPRASLSRLRELCGHWLRPALHTKKQILELLVLEQFLSVLPPHLLGRLQGQPLRDGEEVVLLLEGIHREPSHAGPLDFSCNAGKSCPRADVTLEEKGCASQVPSHSPKKELPAEEPSVLGPSDEPPRPQPRAAQPAEPGQWRLPPSSKQPLSPGPQKTFQALQESSPQGPSPWPEESSRDQELAAVLECLTFEDVPENKAWPAHPLGFGSRTPDKEEFKQEEPKGAAWPTPILAESQADSPGVPGEPCAQSLGRGAAASGPGEDGSLLGSSEILEVKVAEGVPEPNPELQFICADCGVSFPQLSRLKAHQLRSHPAGRSFLCLCCGKSFGRSSILKLHMRTHTDERPHACHLCGHRFRQSSHLSKHLLTHSSEPAFLCAECGRGFQRRASLVQHLLAHAQDQKPPCAPESKAEAPPLTDVLCSHCGQSFQRRSSLKRHLRIHARDKDRRSSEGSGSRRRDSDRRPFVCSDCGKAFRRSEHLVAHRRVHTGERPFSCQACGRSFTQSSQLVSHQRVHTGEKPYACPQCGKRFVRRASLARHLLTHGGPRPHHCTQCGKSFGQTQDLARHQRSHTGEKPCRCSECGEGFSQSAHLARHQRIHTGEKPHACDTCGHRFRNSSNLARHRRSHTGERPYSCQTCGRSFRRNAHLRRHLATHAEPGQEQAEPPQECVECGKSFSRSCNLLRHLLVHTGARPYSCTQCGRSFSRNSHLLRHLRTHARETLY

Tested on: HEK293FT cells transfected with TF library
Assay: Screening of TF condensates based on fluorescent puncta
Assay type: cell-based
Conditions: Figure 1B numerical data; TF library screen, one value per transcriptional factor
How it was run: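 Condensate formation is scored as Alexa 488-labelled puncta after Flag- or GAL4-tag immunostaining of fixed HEK293FT cells expressing individual TFs, with a 12 h glucose-free or glucose-containing culture preceding fixation.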

Molecule | Z score of condensed fraction
B1 | 0.2566
B2 | 2.466
B3 | -0.6879
B4 | -0.9122
B5 | -0.8138
B6 | -0.2607
B7 | -0.4872
B8 | -0.1901
